Experimental data taken from patent publication US20210355204A1.

How the values were obtained:
TGFβ1 (human) [1] = target: TGFβ1 (human) (UniProt P01137); test: cell-based or functional assay
TGFβ2 (human) [2] = target: TGFβ2 (human) (UniProt P61812); test: cell-based or functional assay
TGFβ3 (human) [3] = target: TGFβ3 (human) (UniProt P10600); test: cell-based or functional assay
TGFβ1 (human) [4] = target: TGFβ1 (human) (UniProt P01137); test: SPR (Biacore 2000), TGFβ immobilised on CM1 chip, antibody injected
TGFβ2 (human) [5] = target: TGFβ2 (human) (UniProt P61812); test: as above
TGFβ3 (human) [6] = target: TGFβ3 (human) (UniProt P10600); test: as above
TGFβ1 (human) [7] = target: TGFβ1 (human) (UniProt P01137); test: SPR (Biacore A100), BM-1 captured on anti-mouse Fc CM5 chip, TGFβ injected
TGFβ2 (human) [8] = target: TGFβ2 (human) (UniProt P61812); test: as above
TGFβ3 (human) [9] = target: TGFβ3 (human) (UniProt P10600); test: as above

TGFβ2 (human), sequence (P61812 303-414 limits assumed): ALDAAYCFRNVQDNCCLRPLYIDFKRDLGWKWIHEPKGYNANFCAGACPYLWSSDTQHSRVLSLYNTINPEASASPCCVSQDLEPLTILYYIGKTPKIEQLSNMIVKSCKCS
TGFβ3 (human), sequence (P10600 301-412 limits assumed): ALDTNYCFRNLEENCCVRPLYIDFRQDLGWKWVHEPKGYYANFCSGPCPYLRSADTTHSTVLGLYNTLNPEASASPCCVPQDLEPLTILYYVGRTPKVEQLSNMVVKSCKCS
TGFβ1 (human), sequence (P01137 279-390 limits assumed): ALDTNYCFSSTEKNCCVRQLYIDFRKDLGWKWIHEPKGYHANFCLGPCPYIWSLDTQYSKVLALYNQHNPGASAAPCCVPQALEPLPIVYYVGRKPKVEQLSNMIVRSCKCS

B1: BM-1 (1D11, R&D Systems MAB1835) (antibody, from another filing, V domains shown)
VH: QVQLQQSGPELVRPGASVKLSCKASGYIFITYWMNWVKQRPGQGLEWIGQIFPASGSTNYNEMFEGKATLTVDTSSSTAYMQLSSLTSEDSAVYYCARGDGNYALDAMDYWGQGTSVTVSS
VL: DIVLTQSPASLAVSLGQRATISCRASESVDSYGNSFMHWYQQKSGQPPKLLIYLASNLESGVPARFSGSGSRTDFTLTIDPVEADDAATYYCQQNNEDPLTFGAGTKLEIK
- HT-2 cell neutralization assay, IC50 (TGFβ1 (human) [1]): 220
- IL-11 Release Assay - IC50 (A549 cells) (TGFβ1 (human) [1]): 0.292 µg/mL
- IL-11 Release Assay - IC50 (A549 cells) (TGFβ2 (human) [2]): 0.498 µg/mL
- HT-2 cell neutralization assay, IC50 (TGFβ3 (human) [3]): 196
- IL-11 Release Assay - IC50 (A549 cells) (TGFβ3 (human) [3]): 0.012 µg/mL
- Kd (TGFβ1 (human) [4]): 304 pM
- koff (TGFβ1 (human) [4]): 0.0039 s⁻¹
- kon (TGFβ1 (human) [4]): 1.28e+07 M⁻¹ s⁻¹
- Kd (TGFβ2 (human) [5]): 977 pM
- koff (TGFβ2 (human) [5]): 0.00684 s⁻¹
- kon (TGFβ2 (human) [5]): 7e+06 M⁻¹ s⁻¹
- Kd (TGFβ3 (human) [6]): 188 pM
- koff (TGFβ3 (human) [6]): 0.000946 s⁻¹
- kon (TGFβ3 (human) [6]): 5.05e+06 M⁻¹ s⁻¹
- Kd (TGFβ1 (human) [7]): 72 pM
- koff (TGFβ1 (human) [7]): 0.0014 s⁻¹
- kon (TGFβ1 (human) [7]): 1.9e+07 M⁻¹ s⁻¹
- Kd (TGFβ2 (human) [8]): 170 pM
- koff (TGFβ2 (human) [8]): 0.002 s⁻¹
- kon (TGFβ2 (human) [8]): 1.1e+07 M⁻¹ s⁻¹
- Kd (TGFβ3 (human) [9]): 48 pM
- koff (TGFβ3 (human) [9]): 0.00031 s⁻¹
- kon (TGFβ3 (human) [9]): 6.5e+06 M⁻¹ s⁻¹
